For test [1], the target named is CD20 on living lymphoma cells (Raji, Rael, Daudi) (UniProt P11836). The experiment in a line: immunoreactive fraction, modified Lindmo method on lymphoma cells; 1 experiment.
Test [2] shares this target. The experiment in a line: ^125I-labeled antibody on Rael cells, one-step curve fit of specific binding against time and concentration.
The target is the same in test [3]. The experiment in a line: ^125I-labeled antibody on Raji cells, one-step curve fit of specific binding against time and concentration.
Test [4] shares this target. Briefly: immunoreactive fraction, modified Lindmo method on lymphoma cells; mean ± SD of 6 experiments.
The target in test [5] is T1, human CD37 on living lymphoma cells (Raji, Rael, Daudi) (human, UniProt P11049 1-281).
T1 construct: whole, on cells; Target of HH1 and of the three bought anti-CD37 antibodies on cell lines; also called CD37 antigen
T1 sequence (looked up): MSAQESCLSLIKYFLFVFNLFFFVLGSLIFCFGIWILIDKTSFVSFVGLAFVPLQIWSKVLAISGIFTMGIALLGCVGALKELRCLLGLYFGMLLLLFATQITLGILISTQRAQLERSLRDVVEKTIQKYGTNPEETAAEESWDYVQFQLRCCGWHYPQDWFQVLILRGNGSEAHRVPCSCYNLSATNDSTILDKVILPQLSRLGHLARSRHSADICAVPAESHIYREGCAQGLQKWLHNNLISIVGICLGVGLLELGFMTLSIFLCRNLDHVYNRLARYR
The experiment in a line: ^125I-labeled antibody on Daudi cells, one-step curve fit of specific binding against time and concentration. As to the method: (§1) The association rate constant, kₐ, the equilibrium dissociation constant, Kd, and the mean number of binding sites, Bₘₐₓ, was determined by a one-step curve fitting method (Dahle et al. 2007). The binding parameters were measured for HH1 and rituximab and for three different lymphoma cell lines; Raji, Rael and Daudi cells (Table 2). Specific binding was measured as a function of time and antibody concentration, and the solution of the differential equation describing the net rate of formation of the antigen-antibody complex was fitted to the experimental data points using the association rate constant, kₐ, the equilibrium dissociation constant, Kd, and the mean number of binding sites, Bₘₐₓ, as parameters. Five million cells pr ml were used, four concentrations of ¹²⁵I-labeled antibody (100 ng/ml, 1000 ng/ml, 5000 ng/ml and 10000 ng/ml) and 7 incubation time points (5 min, 10 min, 20 min, 30 min, 1 h, 1.5 h and 2 h). After incubation, cells were washed twice with PBS, and then counted in a gamma counter.

Test [6] deals with T1, human CD37 on living lymphoma cells …. The experiment in a line: ^125I-labeled antibody on Rael cells, one-step curve fit of specific binding against time and concentration. As to the method: as §1
The target is the same in test [7]. The experiment in a line: ^125I-labeled antibody on Raji cells, one-step curve fit of specific binding against time and concentration. Here is the method:
as §1

CD20 on living lymphoma cells (Raji, Rael, Daudi), sequence (P11836 whole entry): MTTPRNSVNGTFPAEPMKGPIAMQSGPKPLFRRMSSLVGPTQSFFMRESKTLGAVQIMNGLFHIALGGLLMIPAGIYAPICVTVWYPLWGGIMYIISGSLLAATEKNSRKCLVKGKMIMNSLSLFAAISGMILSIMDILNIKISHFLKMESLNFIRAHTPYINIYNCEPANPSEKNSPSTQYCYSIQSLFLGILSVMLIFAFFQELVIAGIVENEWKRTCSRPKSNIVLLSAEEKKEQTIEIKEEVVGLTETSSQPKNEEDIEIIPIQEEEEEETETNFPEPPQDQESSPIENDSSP

As to ^111In-rituximab (antibody), the IRF (%) in test [1] stood at 45%.

What is called Kd is a measure of binding affinity in units of concentration. For ^125I-rituximab (antibody), in test [2], the Bmax(Ag/cell) is 626000 Ag/cell and the Kd is 12 nM. In test [3], the Bmax(Ag/cell) turned out to be 272000 Ag/cell and the Kd turned out to be 4.8 nM. The same molecule displayed an IRF (%), mean in test [4] of 62%.

Turning to ^177Lu-rituximab (antibody), the IRF (%) in test [1] was determined as 60%.

B1: ^125I-labeled HH1 (antibody, V domains shown)
VH: EIQLQQSGPELVKPGASVKVSCKASGYSFTDYNMYWVKQSHGKSLEWIGYIDPYNGDTTYNQKFKGKATLTVDKSSSTAFIHLNSLTSEDSAVYYCARSPYGHYAMDYWGQGTSVTVSS
VL: DIVMTQSHKLLSTSVGDRVSITCKASQDVSTAVDWYQQKPGQSPKLLINWASTRHTGVPDRFTGSGSGTDYTLTISSMQAEDLALYYCRQHYSTPFTFGSGTKLEIK
modifications: ^125I by indirect iodination with IODOGEN tubes; chain and residues not stated
In the case of B1, the Kd in test [5] stood at 2.7 nM; in test [6], 12.7 nM; in test [7] it was 6.3 nM.

Source of the values: patent US20140147384A1 (NORDIC NANOVECTOR, published 2014).
